The values that follow come from article PMC8934645.

The experiment addresses Cas9 from Streptococcus pyogenes (SpyCas9) (Streptococcus pyogenes) (UniProt Q99ZW2).
Consider AcrIIA25.1 (natural protein), for which the in vitro DNA cleavage by SpyCas9 RNP (256 nM), Acr titrated 0-8192 nM: Acr concentration that inhibits SpyCas9 was 512 nM. Under AcrIIA26 (natural protein) stands more than 2050 nM. As for AcrIIA27 (natural protein), the in vitro DNA cleavage by SpyCas9 RNP (256 nM), Acr titrated 0-8192 nM: Acr concentration that inhibits SpyCas9 is more than 2050 nM. Turning to AcrIIA28 (natural protein), the in vitro DNA cleavage by SpyCas9 RNP (256 nM), Acr titrated 0-8192 nM: Acr concentration that inhibits SpyCas9 is 512 nM. The figure for AcrIIA32.1 (natural protein) is 512 nM.
